Data reported in paper PMC11480844.

B1: H2-Kb / G2 (parent)
chain 1: GEQVEQRPPHLSVREGDSAVIICTYTDPNSYYFFWYKQEPGAGLQLLMKVFSSTEINEGQGFTVLLNKKDKQLSLNLTAAHPGDSAVYFCAVRTNQGGRALIFGTGTTVSVSP
chain 2: EAAVTQSPRSKVAVTGGKVTLSCHQTNNHDYMYWYRQDTGHGLRLIHYSYVADSTEKGDIPDGYKASRPSQENFSLILELASLSQTAVYFCASSGTDTEVFFGKGTRLTVV
chain 3: not shown
chain 4: IQKTPQIQVYSRHPPENGKPNILNCYVTQFHPPHIEIQMLKNGKKIPKVEMSDMSFSKDWSFYILAHTEFTPTETDTYACRVKHDSMAEPKTVYWDRDM
chain 5: SIINFEKL
B2: H2-Kb / B10 (parent)
chain 1: GQQVQQSPASLVLQEGENAELQCNFSSTATRLQWFYQRPGGSLVSLLSNPSGTKHTGRLTSTTVTKERRGSLHISSSQITDSGTYLCAPGGSNAKLTFGKGTKLSVKS
chain 2: DPKIIQKPKYLVAVTGSEKILICEQYLGHNAMYWYRQSAKKPLEFMFSYSYQKLMDNQTASSRFQPQSSKKNHLDLQITALKPDDSATYFCASSLRGGNNQAPLFGEGTRLSVL
chain 3: not shown
chain 4: B1 chain 4
chain 5: SIINFEKL

Variants of: B1
Assay: % of reporter cells activated (NFAT-GFP), raw
Conditions: with G2; scale: % of reporter cells activated
Also: test concentration or dose not given here.

Ratio to parent: each site, then its substitutions
chain 5 F5: C 1.4, Y 1.62, H 1.51, D 1.77, N 0.984, Q 1.24, G 1.23, I 1.06, W 1.15
chain 5 I3: D 1.26, L 1.34, M 1.88, P 1.44, V 0.968, S 0.936, W 1.3, K 1.5, Q 1.03, T 0.992, Y 0.904
chain 5 S1: V 0.976, L 1.73, Q 1.22, E 1.54, F 1.63, W 1.34, P 1.42, K 1.58, Y 1.26
chain 5 E6: G 1.29, H 1.36, K 1.3, S 1.01, F 1.36, T 1.73, Q 1.41, Y 1.71, C 1.18, L 1.08, R 1.34, P 1.53, W 1.31
chain 5 L8: Y 0.744, Q 1.05, R 1.45, P 1.24, D 0.904, F 1.09, W 0.768, T 0.944, C 1.06, G 1.54
chain 5 N4: H 1.38, P 1.34, L 1.54, F 1.32, D 1.4, K 1.74, I 1.13, V 1.26, S 1.5, Y 0.936
chain 5 I2: H 1.31, L 1.25, G 0.928, A 1.66, M 0.88, C 1.06, V 1.18, R 1.01
chain 5 K7: R 0.664, S 0.824, G 0.936, M 1.34, H 1.63, T 1.27, P 1.46

Variants of: B2
Assay: % of reporter cells activated (NFAT-GFP), raw
Conditions: with B10; scale: % of reporter cells activated

Ratio to parent, by site and new letter:
chain 5 K7: M 2.2, I 2.29, D 1.09, A 1.64, Q 0.636, N 1.54, R 1.17, C 1.34, H 2.02, P 1.37, G 0.898, L 1.85, E 1.37, F 1.64
chain 5 I3: G 1.61, M 1.2, A 0.702, Q 0.61, S 1.22, E 1.13, L 1.93, C 0.746, R 0.903, W 0.831, N 0.966, P 0.949, H 1.53, F 0.897, D 0.864, Y 1.97, T 1.44, V 1.12, K 1.47
chain 5 F5: S 1.46, K 1.49, G 1.63, L 2.41, V 1.02, R 1.1, H 1.27, T 0.847, A 1.31, W 1.03, E 2.36, P 1.86, D 4.25, C 1.1, Q 1.64, M 1.49, I 1.83, N 2.03, Y 1.41
chain 5 I2: M 0.729, A 1.03, L 0.898, V 2.51, Y 1.22, T 1.49, G 0.624, R 1.05, W 0.82, Q 1.43, N 0.875, K 1.71, D 1.32, C 2.08, F 1.5, S 1.22, P 1, H 0.888, E 1.27
chain 5 E6: T 1.75, M 1.2, P 0.983, V 1.44, L 1.28, H 0.924, Q 1.31, S 1.65, A 0.973, D 1.26, F 1.74, W 1.09, Y 1.57, C 1.72, N 0.915, G 1.53, I 0.763, R 1.9, K 1.31
